Data from patent US6897295 (MOCHIDA PHARMACEUTICAL, dated 2005).

Key:
[1] = target: T1, mouse Fas antigen on W4 cells (mouse, UniProt P25446 22-327); test: concluded from cytotoxicity on W4 cells and its inhibition by mFas-Fc
T1 construct: whole, on cells; also called Fas antigen-expressing W4 cells
T1 sequence (looked up): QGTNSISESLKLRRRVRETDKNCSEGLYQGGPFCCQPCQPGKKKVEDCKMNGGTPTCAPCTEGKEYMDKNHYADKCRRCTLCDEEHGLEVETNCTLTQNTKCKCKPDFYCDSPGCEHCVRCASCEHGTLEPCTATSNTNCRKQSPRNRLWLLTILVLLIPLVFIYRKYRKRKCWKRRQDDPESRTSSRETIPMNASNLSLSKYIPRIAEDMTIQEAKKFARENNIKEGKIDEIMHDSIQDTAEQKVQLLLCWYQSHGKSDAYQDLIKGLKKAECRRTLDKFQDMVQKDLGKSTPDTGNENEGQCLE
Method: Cytotoxic activity of recombinant cells was measured in the same manner as described in Inventive Example 8, using the transformed COS cells (COS/pEF-MFLW4F) obtained in the above step (2) as the effector cells and 10^6 cells-of WR19L or W4 as the target cells. The W4 is a transformant which acquired mouse Fas antigen-expressing ability through the transformation of mouse WR19L cells. That is, 10^6 cells of WR19L or W4 were labeled with ^51Cr by culturing the cells at 37° C. for 2 hours in RPMI 1640 medium containing 20 μCi of (^51Cr) sodium chromate (Amersham).
The thus ^51Cr-labeled cells (1×10^4) were mixed with COS/pEF-MFLW4F cells at various mixing ratios and cultured at 37° C. for 4 hours, subsequently measuring cytotoxic activity using released ^51Cr as an index. […] In addition, the cytotoxicity of COS/pEF-MFLW4F cells was inhibited by the addition of 20 μg/ml of the chimera protein containing the extracellular domain of mouse Fas antigen (mFas-Fc) prepared in Inventive Example 1, but was not inhibited by the addition of the soluble type human TNF receptor (hTNFRβ-Fc).

[2] = target: T2, human Fas antigen on WC8A / WC8 cells (human, UniProt P25445 26-335); test: concluded from cytotoxicity of the culture supernatant on cells expressing human Fas antigen
T2 construct: whole, on cells
T2 sequence (looked up): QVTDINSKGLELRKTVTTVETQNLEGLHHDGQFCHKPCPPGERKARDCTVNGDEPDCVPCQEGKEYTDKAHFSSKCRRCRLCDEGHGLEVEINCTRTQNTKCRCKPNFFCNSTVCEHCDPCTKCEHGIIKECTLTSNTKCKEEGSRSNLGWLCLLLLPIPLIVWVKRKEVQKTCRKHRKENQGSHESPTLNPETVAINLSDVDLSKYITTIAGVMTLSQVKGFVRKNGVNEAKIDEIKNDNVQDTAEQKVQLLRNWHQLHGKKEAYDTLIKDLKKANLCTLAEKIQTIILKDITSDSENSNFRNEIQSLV

[3] = target: T2, human Fas antigen on WC8A / WC8 cells; test: concluded from cytotoxicity on WC8A cells and its inhibition by hFas-Fc and mFas-Fc
Method: Cytotoxic activity of recombinant cells was measured in the same manner as described in Inventive Example 8, using the COS-7 cells transformed in the above step (2) as the effector cells and 10^6 cells of WR19L or WC8A as the target cells. The WC8A is a transformant which acquired human Fas antigen-expressing ability through the transformation of mouse WR19L cells (Itoh N. et al., *J. Immunol.*, vol. 151, pp. 621–627, 1993).
The thus ^51Cr-labeled cells (1 ×10^4) were mixed with COS/pEX-hFL1 cells at various mixing ratios and cultured at 37° C. for 4 hours, subsequently measuring cytotoxic activity using released ^51Cr as an index.

[4] = target: T3, rat Fas ligand (encoded by clone pTN24-15) (rat, UniProt P36940 1-278); test: flow cytometry on d10S cells, phycoerythrin-labeled streptoavidin
T3 construct: Full-length type II membrane protein of 278 residues; It stood on d10S cells and on COS-7 cells transfected with pTN24-15; It was also used as NP-40 lysate of these cells (immunoprecipitation) and as protein purified from the d10S-12 membrane fraction (about 40 kD); also called Fas ligand on the d10S cells; COS/pTN24-15
T3 sequence: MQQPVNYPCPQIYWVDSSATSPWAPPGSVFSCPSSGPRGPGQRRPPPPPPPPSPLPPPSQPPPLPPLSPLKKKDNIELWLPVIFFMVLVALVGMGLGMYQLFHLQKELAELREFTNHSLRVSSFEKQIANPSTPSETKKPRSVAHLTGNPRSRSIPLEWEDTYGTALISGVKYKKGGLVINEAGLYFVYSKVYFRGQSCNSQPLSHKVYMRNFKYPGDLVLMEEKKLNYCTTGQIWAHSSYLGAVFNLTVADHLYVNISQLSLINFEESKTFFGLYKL
Method: PC60-d10S cells (to be referred to as "d10S" hereinafter; Rouvier E. et al., J. Exp. Med., vol. 177, pp. 195–200, 1993) were washed with a staining solution (phosphate-buffered saline (to be referred to as "PBS" hereinafter) containing 2% FCS and 0.02% NaN₃). About 1 ×10^6 of the cells were suspended in 50 μl of the staining solution supplemented with 5 μg/ml of rat anti-mouse FcγRII blocking antibody (Pharmingen). This suspension was dispensed into wells of a 96 well plate and incubated for 10 minutes on an ice bath. A 20 μg/ml solution of the biotinylated mFas-Fc was dispensed into wells of the resulting plate in 50 μl portions, and the incubation was continued for additional 30 minutes on an ice bath. […]
After washing the cells with the staining solution, cytometric analysis was carried out using FACScan (Becton Dickinson). As the result, a slight shift in the fluorescence intensity was observed which confirmed that said cells were stained with the biotinylated mFas-Fc (see FIG. 1(A). Control was expressed as an open area, and staining before 4 hours of treatment with PMA and ionomycin as a stippled area and staining after 4 hours of treatment with PMA and ionomycin as a closed area.

B1: mouse Fas ligand (encoded by pEF-MFLW4) (ligand)
chain: MQQPMNYPCPQIFWVDSSATSSWAPPGSVFPCPSCGPRGPDQRRPPPPPPPVSPLPPPSQPLPLPPLTPLKKKDHNTNLWLPVVFFMVLVALVGMGLGMYQLFHLQKELAELREFTNQSLKVSSFEKQIANPSTPSEKKEPRSVAHLTGNPHSRSIPLEWEDTYGTALISGVKYKKGGLVINETGLYFVYSKVYFRGQSCNNQPLNHKVYMRNSKYPEDLVLMEEKRLNYCTTGQIWAHSSYLGAVFNLTSADHLYVNISQLSLINFEESKTFFGLYKL
notes: Full-length protein of 279 residues on transfected COS cells; In the western blots it stood as reduced SDS extract of these cells; also called COS/pEF-MFLW4F
**Q.** Does B1 bind [1]?
**A.** binds

B2: extracellular domain of the human Fas ligand secreted by transformant COS-1/pM1070 (ligand)
chain: QLFHLQKELAELRESTSQMHTASSLEKQIGHPSPPPEKKELRKVAHLTGKSNSRSMPLEWEDTYGIVLLSGVKYKKGGLVINETGLYFVYSKVYFRGQSCNNLPLSHKVYMRNSKYPQDLVMMEGKMMSYCTTGQMWARSSYLGAVFNLTSADHLYVNVSELSLVNFEESQTFFGLYKL
notes: Expressed behind the signal peptide of the human Fas antigen, which is not counted here; Tested as culture supernatant; also called culture supernatant of COS-1/pM1070
**Q.** Does B2 bind [2]?
**A.** binds

B3: human Fas ligand (encoded by pEX-hFL1) (ligand)
chain: MQQPFNYPYPQIYWVDSSASSPWAPPGTVLPCPTSVPRRPGQRRPPPPPPPPPLPPPPPPPPLPPLPLPPLKKRGNHSTGLCLLVMFFMVLVALVGLGLGMFQLFHLQKELAELRESTSQMHTASSLEKQIGHPSPPPEKKELRKVAHLTGKSNSRSMPLEWEDTYGIVLLSGVKYKKGGLVINETGLYFVYSKVYFRGQSCNNLPLSHKVYMRNSKYPQDLVMMEGKMMSYCTTGQMWARSSYLGAVFNLTSADHLYVNVSELSLVNFEESQTFFGLYKL
notes: Full-length protein on COS-7 cells (COS/pEX-hFL1) or FDC-P1 cells (FLh1); In the western blots it stood as reduced SDS extract of the transfected COS cells; also called COS/pEX-hFL1; human Fas ligand-expressing COS cells
**Q.** Does B3 bind [3]?
**A.** binds

B4: chimera protein of the extracellular domain of mouse Fas (mFas) antigen and the Fc region of human IgG1 (hIgG1) (Fc fusion, UniProt P25446 22-169, looked up)
chain: QGTNSISESLKLRRRVRETDKNCSEGLYQGGPFCCQPCQPGKKKVEDCKMNGGTPTCAPCTEGKEYMDKNHYADKCRRCTLCDEEHGLEVETNCTLTQNTKCKCKPDFYCDSPGCEHCVRCASCEHGTLEPCTATSNTNCRKQSPRNR
modifications: biotinylated with NHS-LC-biotin in the flow cytometry; unlabelled in the other assays
notes: extracellular domain; Made from plasmid pFas-FcII in COS-7 or BTS-1 cells; also called mFas-Fc; biotinylated mFas-Fc; not shown: human IgG1 heavy chain constant region: hinge, CH2 and CH3 domains
**Q.** Does B4 bind [4]?
**A.** binds

B5: chimera protein of TNF receptor beta and Fc region of human IgG1 (Fc fusion, UniProt P19438 30-211, looked up)
chain: LVPHLGDREKRDSVCPQGKYIHPQNNSICCTKCHKGTYLYNDCPGPGQDTDCRECESGSFTASENHLRHCLSCSKCRKEMGQVEISSCTVDRDTVCGCRKNQYRHYWSENLFQCFNCSLCLNGTVHLSCQEKQNTVCTCHAGFFLRENECVSCSNCKKSLECTKLCLPQIENVKGTEDSGTT
modifications: biotinylated with NHS-LC-biotin in the flow cytometry; unlabelled in the cytotoxicity assays
notes: extracellular domain; Control fusion protein; also called hTNFRβ-Fc; soluble type human TNF receptor; not shown: human IgG1 Fc region (hinge, CH2, CH3, as in pFas-FcII)
**Q.** Does B5 bind [4]?
**A.** no binding
